# ± gives the uncertainty stated by the source.
# B1: Transcriptional regulator ERG, residues 117 to 197; numbered along this chain, P11308 (parent)
# chain: NMTTNERRVIVPADPTLWSTDHVRQWLEWAVKEYGLPDVNILLFQNIDGKELCKMTKDDFQRLTPSYNADILLSHLHYLRE
# Variants of: B1
# Assay: abundance fitness (aPCA) (normalised: wild type 0, dead -1); higher = more abundant; growth selection in yeast, the domain comes from the species named
# Conditions: Homo sapiens
row,Variant,abundance fitness
1,NMTTNERRVIVPADPTLWSTDHVRQWLEWAVKEYGLPDVNILLFQNIDGKELCKMTKDDFQRLTPSHNADILLSHLHYLRE,0.033 ± 0.15
2,NMTTNERRVIVPADPTLWSTDHVRQWLEWAVKEYGLPDVNILLFQNIDGKELCKMTKDDFQRLTPSSNADILLSHLHYLRE,0.075 ± 0.07
3,NMTTNERRVIVPADPTLWSTDHVRQWLEWAVKEYGLPDVNILLFQNIDGKELCKMTKDDFQRLTPSPNADILLSHLHYLRE,0.036 ± 0.09
4,NMTTNERRVIVPADPTLWSTDHVRQWLEWAVKEYGLPDVNILLFQNIDGKELCKMTKDDFQRLTPSMNADILLSHLHYLRE,-0.14 ± 0.1
5,NMTTNERRVIVPADPTLWSTDHVRQWLEWAVKEYGLPDVNILLFQNIDGKELCKMTKDDFQRLTPSINADILLSHLHYLRE,-0.16 ± 0.19
6,NMTTNERRVIVPADPTLWSTDHVRQWLEWAVKEYGLPDVNILLFQNIDGKELCKMTKDDFQRLTPSCNADILLSHLHYLRE,0.127 ± 0.098
7,NMTTNERRVIVPADPTLWSTDHVRQWLEWAVKEYGLPDVNILLFQNIDGKELCKMTKDDFQRLTPSGNADILLSHLHYLRE,0.078 ± 0.042
8,NMTTNERRVIVPADPTLWSTDHVRQWLEWAVKEYGLPDVNILLFQNIDGKELCKMTKDDFQRLTPSENADILLSHLHYLRE,0.037 ± 0.072
9,NMTTNERRVIVPADPTLWSTDHVRQWLEWAVKEYGLPDVNILLFQNIDGKELCKMTKDDFQRLTPSVNADILLSHLHYLRE,0.019 ± 0.062
10,NMTTNERRVIVPADPTLWSTDHVRQWLEWAVKEYGLPDVNILLFQNIDGKELCKMTKDDFQRLTPSTNADILLSHLHYLRE,0.113 ± 0.072
11,NMTTNERRVIVPADPTLWSTDHVRQWLEWAVKEYGLPDVNILLFQNIDGKELCKMTKDDFQRLTPSLNADILLSHLHYLRE,-0.03 ± 0.072
12,NMTTNERRVIVPADPTLWSTDHVRQWLEWAVKEYGLPDVNILLFQNIDGKELCKMTKDDFQRLTPSFNADILLSHLHYLRE,-0.242 ± 0.15
13,NMTTNERRVIVPADPTLWSTDHVRQWLEWAVKEYGLPDVNILLFQNIDGKELCKMTKDDFQRLTPSKNADILLSHLHYLRE,-0.097 ± 0.1
14,NMTTNERRVIVPADPTLWSTDHVRQWLEWAVKEYGLPDVNILLFQNIDGKELCKMTKDDFQRLTPSNNADILLSHLHYLRE,0.138 ± 0.12
15,NMTTNERRVIVPADPTLWSTDHVRQWLEWAVKEYGLPDVNILLFQNIDGKELCKMTKDDFQRLTPSDNADILLSHLHYLRE,0.199 ± 0.096
16,NMTTNERRVIVPADPTLWSTDHVRQWLEWAVKEYGLPDVNILLFQNIDGKELCKMTKDDFQRLTPSQNADILLSHLHYLRE,0.079 ± 0.12
17,NMTTNERRVIVPADPTLWSTDHVRQWLEWAVKEYGLPDVNILLFQNIDGKELCKMTKDDFQRLTPSANADILLSHLHYLRE,0.016 ± 0.063

row,Variant,abundance fitness
1,NMTTNERRVIVPADPTLWSTDHVRQWLEWAVKEYGLPDVNILLFQNIDGKELCKMTKDDFQRLQPSYNADILLSHLHYLRE,-0.135 ± 0.069
2,NMTTNERRVIVPADPTLWSTDHVRQWLEWAVKEYGLPDVNILLFQNIDGKELCKMTKDDFQRLMPSYNADILLSHLHYLRE,0.011 ± 0.056
3,NMTTNERRVIVPADPTLWSTDHVRQWLEWAVKEYGLPDVNILLFQNIDGKELCKMTKDDFQRLGPSYNADILLSHLHYLRE,-0.141 ± 0.039
4,NMTTNERRVIVPADPTLWSTDHVRQWLEWAVKEYGLPDVNILLFQNIDGKELCKMTKDDFQRLCPSYNADILLSHLHYLRE,-0.076 ± 0.084
5,NMTTNERRVIVPADPTLWSTDHVRQWLEWAVKEYGLPDVNILLFQNIDGKELCKMTKDDFQRLDPSYNADILLSHLHYLRE,0.041 ± 0.077
6,NMTTNERRVIVPADPTLWSTDHVRQWLEWAVKEYGLPDVNILLFQNIDGKELCKMTKDDFQRLEPSYNADILLSHLHYLRE,-0.175 ± 0.06
7,NMTTNERRVIVPADPTLWSTDHVRQWLEWAVKEYGLPDVNILLFQNIDGKELCKMTKDDFQRLFPSYNADILLSHLHYLRE,0.025 ± 0.15
8,NMTTNERRVIVPADPTLWSTDHVRQWLEWAVKEYGLPDVNILLFQNIDGKELCKMTKDDFQRLSPSYNADILLSHLHYLRE,-0.155 ± 0.048
9,NMTTNERRVIVPADPTLWSTDHVRQWLEWAVKEYGLPDVNILLFQNIDGKELCKMTKDDFQRLVPSYNADILLSHLHYLRE,-0.028 ± 0.042
10,NMTTNERRVIVPADPTLWSTDHVRQWLEWAVKEYGLPDVNILLFQNIDGKELCKMTKDDFQRLKPSYNADILLSHLHYLRE,-0.576 ± 0.12
11,NMTTNERRVIVPADPTLWSTDHVRQWLEWAVKEYGLPDVNILLFQNIDGKELCKMTKDDFQRLWPSYNADILLSHLHYLRE,-0.091 ± 0.052
12,NMTTNERRVIVPADPTLWSTDHVRQWLEWAVKEYGLPDVNILLFQNIDGKELCKMTKDDFQRLNPSYNADILLSHLHYLRE,0.02 ± 0.12
13,NMTTNERRVIVPADPTLWSTDHVRQWLEWAVKEYGLPDVNILLFQNIDGKELCKMTKDDFQRLIPSYNADILLSHLHYLRE,-0.345 ± 0.12
14,NMTTNERRVIVPADPTLWSTDHVRQWLEWAVKEYGLPDVNILLFQNIDGKELCKMTKDDFQRLTPRYNADILLSHLHYLRE,-0.057 ± 0.054
15,NMTTNERRVIVPADPTLWSTDHVRQWLEWAVKEYGLPDVNILLFQNIDGKELCKMTKDDFQRLTPFYNADILLSHLHYLRE,-0.039 ± 0.11
16,NMTTNERRVIVPADPTLWSTDHVRQWLEWAVKEYGLPDVNILLFQNIDGKELCKMTKDDFQRLTPLYNADILLSHLHYLRE,-0.239 ± 0.062
17,NMTTNERRVIVPADPTLWSTDHVRQWLEWAVKEYGLPDVNILLFQNIDGKELCKMTKDDFQRLTPDYNADILLSHLHYLRE,-0.185 ± 0.12
